Results on 21 variants are retold here after FireProtDB.

To fix the notation:
B1: V49I|E91D|L96F|L97H|T99A|E103I|L110F|S111V|S115E|V217M|Q222G, Q88HV5 (parent)
chain: MPFQQGLLATPVPAHARHLFFTLQSPEALPAALDALLPQVDGKQLLLGVGAPLAKALGREIPGLRPFPLLDAAVENPSTQHALWLWLRGDERGDLLLRTQALEQALAPALSLADSVDGFLHRGGHDLTGYEDGTENPTDEEAVQAAIAADGSSFAAFQLWKHDLQYFKSLPQADQDNIIGRRLSDNEELDDAPASAHVKRTAQESFEPEAFMVRRSVSWADQRGAGLAFVALGKSFEAFEVQLRRMSGLEDGIIDGLYRFSRPLTGGYYWCPPMSETGVDLSPLLRA
B2: FMN-dependent NADH:quinone oxidoreductase 1, Q88IY3 (parent)
chain: MKLLHIDSSILGDNSASRQLSREVVEAWKAADPSVEVVYRDLAADAIAHFSAATLVAAGTPEDVRDAAQAFEAKLSAETLEEFLAADAVVIGAPMYNFTVPTQLKAWIDRVAVAGKTFRYTEAGPQGLCGNKKVVLVSTAGGLHAGQPTGAGHEDFLKVFLGFIGITDLEIVRAHGLAYGPEQRSQAIDAAQAQIASELFAAA
B3: Formate dehydrogenase, O13437 (parent)
chain: MKIVLVLYDAGKHAADEEKLYGCTENKLGIANWLKDQGHELITTSDKEGETSELDKHIPDADIIITTPFHPAYITKERLDKAKNLKLVVVAGVGSDHIDLDYINQTGKKISVLEVTGSNVVSVAEHVVMTMLVLVRNFVPAHEQIINHDWEVAAIAKDAYDIEGKTIATIGAGRIGYRVLERLLPFNPKELLYYDYQALPKEAEEKVGARRVENIEELVAQADIVTVNAPLHAGTKGLINKELLSKFKKGAWLVNTARGAICVAEDVAAALESGQLRGYGGDVWFPQPAPKDHPWRDMRNKYGAGNAMTPHYSGTTLDAQTRYAEGTKNILESFFTGKFDYRPQDIILLNGEYVTKAYGKHDKK

The variants in one data set derive from B1. The settings on record: Pseudomonas putida (strain ATCC 47054 / DSM 6125 / CFBP 8728 / NCIMB 11950 / KT2440); pH 7.6; Fluorescence spectroscopy; whole UniProt chain shown.
For the variant V49I E91D L96F L97H T99A E103I L110F S111V S115E V217M Q222G, the Tm was 65 °C.
On to S25F E91D D94E L110F G118A L120R H125R D139G A149L A155V S169A D174E, for which the Tm was found to be 75 °C.
Still for that read-out and setting: to R17V A28D V49I E91D L96F L97H T99A E103I T138Q D139G E140D Q144E A149D Q165D D174E A194E V217M Q222G K234H E237D P283A belongs 82 °C; to A9L S25F D139G A149L A155V, 68 °C; to A28D A35R V49I L110F S111V S115E L120R H121Y G123D T138Q D139G E140D Q144E A149D Q222G P283A, 74 °C.
On the same count and under the same terms, to A9L S25F L110F G118A L120R H125R S169A D174E V217M S218P Q222G L232F E237D belongs 75 °C.
The same measure, in the same setting: to A9L S25F Q100R L110F G118A L120R H125R D139G A149L S169A E237D belongs 70 °C; to A9L S25F D139G A149L A155V V279L, 68 °C.

In a further data set the parent is B2. To be noted: Pseudomonas putida (strain ATCC 47054 / DSM 6125 / CFBP 8728 / NCIMB 11950 / KT2440); Fluorescence spectroscopy; whole UniProt chain shown.
For the variant Q192R A46P V159A C129S D7H A178D, the Tm came to 54 °C and the “ddG of mutation (higher = less stable)” value was determined as 1.5 kcal/mol.
For Q192R A46P V159A the same measures were 55 °C and -0.8 kcal/mol.
For Q192R A46P V159A C129S the same measures were 51 °C and -0.6 kcal/mol.
Consider Q192R A46P V159A A48P, for which the Tm is 55 °C and the “ddG of mutation (higher = less stable)” value was 3.3 kcal/mol.
For Q192R A46P V159A A48P Y179H the same measures were 55 °C and -0.3 kcal/mol.
As to Q192R A46P V159A C129S A178D A88G N131D L143Q, the Tm is 44 °C and the “ddG of mutation (higher = less stable)” value is -1.9 kcal/mol.

The variants in another data set derive from B3. The settings on record: Candida boidinii; whole UniProt chain shown.
For the variant S333Y, the Tm came out at 55 °C.
The same measure, in the same setting: the value for C23S was 54 °C; that for D149L was 58 °C; that for A141M was 35 °C.
On the same count and under the same terms, the value for A10C was 64 °C; that for N350W was 54 °C; that for A264P was 59 °C.
